Columns and labels:
[1] = target: T1, PKC-zeta (Homo sapiens, UniProt Q05513); assay: In vitro kinase assay: peptide phosphorylation by PKC-zeta; assay type: biochemical; settings: for PKC-zeta phosphorylation: normalized to best substrate
T1 construct: purchased Calbiochem
T1 sequence (Q05513 1-592): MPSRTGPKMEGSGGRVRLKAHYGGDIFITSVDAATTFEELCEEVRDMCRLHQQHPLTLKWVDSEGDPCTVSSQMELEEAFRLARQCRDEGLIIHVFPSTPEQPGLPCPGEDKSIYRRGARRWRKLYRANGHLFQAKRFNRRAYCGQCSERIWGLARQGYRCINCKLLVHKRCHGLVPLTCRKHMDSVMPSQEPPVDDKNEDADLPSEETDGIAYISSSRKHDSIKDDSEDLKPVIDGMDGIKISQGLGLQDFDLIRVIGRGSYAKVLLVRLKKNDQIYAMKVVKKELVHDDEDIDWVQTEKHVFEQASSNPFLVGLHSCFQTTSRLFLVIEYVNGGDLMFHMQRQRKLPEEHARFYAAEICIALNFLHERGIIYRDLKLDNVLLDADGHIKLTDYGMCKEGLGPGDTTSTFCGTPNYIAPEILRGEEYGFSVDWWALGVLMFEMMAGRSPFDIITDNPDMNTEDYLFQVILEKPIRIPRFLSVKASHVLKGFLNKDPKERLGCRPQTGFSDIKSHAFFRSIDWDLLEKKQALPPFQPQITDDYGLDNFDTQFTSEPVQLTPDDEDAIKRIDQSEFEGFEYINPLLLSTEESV
Procedure: Catalytically active preparations of the kinases of interest were either purchased or prepared. Purchased and tested active kinase preparations including the following: PKC-alpha, PKC-delta, PKC-epsilon, PKC-zeta, PKC-mu, PKA, PKG from Calbiochem, ROK alpha/ROCK-II, active from Upstate Biotechnology, and AKT1 from Panvera.
(§1) The conditions of the kinase assay and the amount of active kinase used varied with the kinase and with the accuracy needed. For a typical experiment, 5-20 ng of kinase was used per well and each peptide pool was assayed in duplicate wells. Note that the absolute amount of kinase used was not usually a critical parameter, because the desired information related to specificity of the kinase not its absolute activity, and robustness of the assay depends on comparisons of the same amount of kinase on different peptides. The combination of kinase concentration and assay duration was modified to assure that the stoichiometry of peptide phosphorylation never exceeded 5%. The choice of kinase buffer depended on the kinase being analyzed. For studies of PKC, 100 mM HEPES, 0.05% Triton-X100, 1 mM CaCl2, 20 mM MgCl2, 0.2 mg/ml phosphatidyl serine (Avanti Polar Lipids), PMA 100 ng/ml was typically used. The lipid stock was prepared by transferring 3 mg phosphatidyl serine into iced mixture of 450 μl water plus 50 μl of 10% Triton-X100, sonicating 10 times on ice for 1 sec each.
(§2) The kinase reaction mixture was assembled by sequential addition to a tube held on ice of: 5 μl peptide (100 μM for final concentration of 10 μM), 15 μl of kinase (typically 5 ng/well, in appropriate kinase buffer), 30 μl of ATP (1 uCi/well of ^32P-gamma ATP in a stock of 167 μM cold ATP in the kinase buffer; for final concentration for 100 μM ATP). The mixture was rapidly warmed to desired reaction temperature (30° C. for PKC) and incubated for the desired duration (usually 10 minutes). The kinase assay was terminated by transfer to 4° C. water batch, and rapid addition of an equal volume (50 μl) of stop solution [0.1M ATP+0.1M EDTA in water, pH 8].
(§3) The peptides were then captured from the reaction mixture by transfer to a Reacti-Bind Streptavidin High Binding Capacity Coated Plates (HBC) (Pierce Biotechnology) as follows. The HBC plates were pre-rinsed three times with PBS/Tween PBS/Tween20 0.05% (PBS/Tween). Part of all of the reaction mixture was then transferred wells of a HBC plate pre-filled with 90 μl of phosphate-buffered saline (PBS); typically each aliquots of each phosphorylation reaction were transferred to duplicate HBC plates to assure accuracy by additional replication
For kinase assays done at the standard peptide concentration of 10 μM, the peptide concentration in the reaction mixture becomes 5 μM after addition of the stop solution; consequently 10 μl of the reaction (50 pMoles of peptide) was transferred to the HBC plate. More generally, the amount of reaction mixture transferred was estimated to be about 50 pMoles of peptide. […] The HBC plates were incubated for 0.5 to 1.5 hr at room temperature for complete binding of biotinylated peptides to plate-bound streptavidin. The HBC plates were then washed extensively with PBS/Tween. Five washes were done routinely and additional wash steps were added if the wash solution removed from the plate had measurable radioactivity as detected using a Geiger counter. This step is essential to obtaining a good the signal to noise ratio because the fraction of radioactivity incorporated in the peptides was a tiny fraction of the total in the reaction mixture. The wells were air-dried. A volume of 40-50 μl of microScint-20 (Packard Instruments) was added to each well. The plates were covered with stick-on film sheet. Radioactive emissions were measured in a TopCount NXT Microplate Scintillation and Luminescence Counter (Packard Instruments). Typically samples were counted for 5 minutes (or more) to improve the signal to noise ratio when counts were low. […]

[2] = system: PKC; assay: In vitro phosphorylation by PKC (average of isoforms alpha, epsilon, delta, theta); assay type: biochemical; settings: for average (phosphorylation by PKC-theta, -delta, -epsilon, -alpha): average over PKC-theta, -epsilon and -alpha at 10 and 1 uM peptide, relative to best substrate; for PKC average: average of PKC-alpha, -epsilon, -theta, normalized to best substrate
Procedure: as §1, §2, §3
For kinase assays done at the standard peptide concentration of 10 μM, the peptide concentration in the reaction mixture becomes 5 μM after addition of the stop solution; consequently 10 μl of the reaction (50 pMoles of peptide) was transferred to the HBC plate. More generally, the amount of reaction mixture transferred was estimated to be about 50 pMoles of peptide. […] The HBC plates were incubated for 0.5 to 1.5 hr at room temperature for complete binding of biotinylated peptides to plate-bound streptavidin. The HBC plates were then washed extensively with PBS/Tween. Five washes were done routinely and additional wash steps were added if the wash solution removed from the plate had measurable radioactivity as detected using a Geiger counter. This step is essential to obtaining a good the signal to noise ratio because the fraction of radioactivity incorporated in the peptides was a tiny fraction of the total in the reaction mixture. The wells were air-dried. A volume of 40-50 μl of microScint-20 (Packard Instruments) was added to each well. The plates were covered with stick-on film sheet. Radioactive emissions were measured in a TopCount NXT Microplate Scintillation and Luminescence Counter (Packard Instruments). Typically samples were counted for 5 minutes (or more) to improve the signal to noise ratio when counts were low.
Many peptides that are good substrates for PKC enzymes were identified using the methods of the invention. For example, Tables 4 and 5 provide a listing of peptides identified as potentially useful kinase substrates. […]

Substance | phosphorylation by PKC zeta ([1]; peptide concentration 1 uM) | phosphorylation by PKC zeta ([1]; peptide concentration 10 uM) | average (phosphorylation by PKC-theta, -delta, -epsilon, -alpha) [2] | PKC-zeta phosphorylation [1] [%] | PKC average [2] [%]
132 (GFLNEPLSSKSQRRKSLKLK) [compound 132] | 19 | 61 | 38 |  | 
166 (MAQIERGEARIQRRISIKKA) [compound 166] | 2 | 9 | 15 |  | 
94 (KLAVGRHSFSRRSGV) [compound 94] |  |  |  | 10 | 36
111 (KKKRFSFKKSFKLSGFSFKK) [compound 111] |  |  |  | 9 | 14
134 (RSRSRSRSKSKDKRKSRKRS) [compound 134] | 5 | 5 | 34 |  | 
167 (GLPAPGEDKSIYRRGSRRWR) [compound 167] | 5 | 37 | 15 |  | 
123 (KKRFSFKKSFKLSGFSFKKN) [compound 123] | 20 | 20 | 49 |  | 
143 (VRYTPYTISPYNRKGSFRKQ) [compound 143] | 22 | 79 | 28 |  | 
131 (WKGKRRSKARKKRK) [compound 131] | 7 | 6 | 38 |  | 
76 (HVRRRRGTFKRSKLRARD) [compound 76] |  |  |  | 41 | 91
142 (ERHVAQKKSRLRRRASQLKI) [compound 142] | 22 | 37 | 28 |  | 
79 (NRKKKRTSFKRKA) [compound 79] |  |  |  | 18 | 60
129 (VQRHRSMRKTFARYLSFRRD) [compound 129] | 51 | 31 | 40 |  | 
78 (KFARKSTRRSIRLPE) [compound 78] |  |  |  | 100 | 63
127 (SQVQKQRSAGSFKRNSIKKI) [compound 127] | 19 | 19 | 43 |  | 
92 (DGQKRKKSLRKKLD) [compound 92] |  |  |  | 2 | 38
157 (PSPSNETPKKKKKRFSFKKS) [compound 157] | 3 | 6 | 20 |  | 
83 (RKIPKRPGSVHRTPSRQ) [compound 83] |  |  |  | 4 | 55
154 (KKFFTQGWAGWRKKTSFRKP) [compound 154] | 27 | 23 | 22 |  | 

Substance | phosphorylation by PKC zeta ([1]; peptide concentration 1 uM) | phosphorylation by PKC zeta ([1]; peptide concentration 10 uM) | average (phosphorylation by PKC-theta, -delta, -epsilon, -alpha) [2] | PKC-zeta phosphorylation [1] [%] | PKC average [2] [%]
100 (WKGKRRSKARKKRK) [compound 100] |  |  |  | 8 | 26
140 (TELEGGFSRQRKRKLSFRRR) [compound 140] | 24 | 49 | 30 |  | 
119 (KKRFSFKKSFKLSGFSFKKN) [compound 119] | 20 | 20 | 61 |  | 
117 (NRKKKRTSFKRKA) [compound 117] | 20 | 11 | 70 |  | 
113 (GENVLKKSMKSRVKG) [compound 113] |  |  |  | 1 | 10
120 (AKRRRLSSLRASTSK) [compound 120] | 43 | 34 | 52 |  | 
144 (LSSMFGTLPRKSRKGSVRKQ) [compound 144] | 16 | 54 | 28 |  | 
137 (PSKSPSKKKKKFRTPSFLKK) [compound 137] | 4 | 5 | 31 |  | 
77 (KKKKRASFKRKSSKKG) [compound 77] |  |  |  | 60 | 80
125 (PLKEKKRERKTSSKSSVRKR) [compound 125] | 13 | 12 | 48 |  | 
107 (QKRHARVTVKYDRRE) [compound 107] |  |  |  | 1 | 19
93 (AARKKRISVKKKQEQ) [compound 93] |  |  |  | 1 | 37
108 (KATTKKRTLRKNDRK) [compound 108] |  |  |  | 1 | 16
85 (RFARKGSLRQKNV) [compound 85] |  |  |  | 56 | 52
156 (SAQITIPKDGQKRKKSLRKK) [compound 156] | 15 | 44 | 20 |  | 
84 (QKKSRLRRRASQLKI) [compound 84] |  |  |  | 19 | 53
133 (LEKRGMLGKRPRRKSSRRKK) [compound 133] | 27 | 30 | 37 |  | 
114 (KKKKRASFKRKSSKKG) [compound 114] | 45 | 51 | 95 |  | 

Reference: patent US20050064507A1, “Determining kinase specificity” (priority 2003, published 2005)
